The results in this text go back to the supplement of paper PMC5998384.

In data set [1] the test system is HeLa Kyoto. The data set can be described thus: solubility in G1/S (NP-40 vs SDS abundance) (log2 ratio); higher = more soluble. The settings on record: cell cycle stage: G1/S.
The test system of data set [2] is HeLa Kyoto. The data set can be described thus: solubility change mitosis vs G1/S (difference of NP-40 vs SDS log2 ratios) (log2 ratio difference); higher = more soluble in mitosis.
The test system of data set [3] is HeLa Kyoto. Kind of data set: thermal stability score vs G1/S (z-score of summed log2 fold changes over temperatures); higher = more thermally stable than in G1/S.
The test system of data set [4] is HeLa Kyoto. The data set can be described thus: melting temperature (median over replicates), in situ; higher = more thermally stable.
Where [5] appears, read: cell cycle stage: early G1 (4.5 h after nocodazole release).
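For melting temperature (median over replicates), in situ in this document: HeLa Kyoto cells synchronized by double thymidine or nocodazole block, proteins quantified by TMT10plex mass spectrometry, three independent biological replicates.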
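For solubility change mitosis vs G1/S (difference of NP-40 vs SDS log2 ratios) in this document: synchronized HeLa Kyoto cells (double thymidine block for G1/S, nocodazole release for mitosis), protein amounts in NP-40 versus SDS lysates quantified by mass spectrometry, three biological replicates.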
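For solubility in G1/S (NP-40 vs SDS abundance) in this document: HeLa Kyoto cells arrested at G1/S by double thymidine block, proteins quantified by TMT10plex mass spectrometry in mild NP-40 versus SDS extracts, three biological replicates.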
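For thermal stability score vs G1/S (z-score of summed log2 fold changes over temperatures) in this document: synchronized HeLa Kyoto cells, proteins quantified by TMT10plex mass spectrometry, three biological replicates, mitosis taken 0.5 h after nocodazole release, G1/S directly after double thymidine block.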

With “MVVMARLSRPERPDLVFEEEDLPYEEEIMRNQFSVKCWLRYIEFKQGAPKPRLNQLYERALKLLPCSYKLWYRYLKARRAQVKHRCVTDPAYEDVNNCHERAFVFMHKMPRLWLDYCQFLMDQGRVTHTRRTFDRALRALPITQHSRIWPLYLRFLRSHPLPETAVRGYRRFLKLSPESAEEYIEYLKSSDRLDEAAQRLATVVNDERFVSKAGKSNYQLWHELCDLISQNPDKVQSLNVDAIIRGGLTRFTDQLGKLWCSLADYYIRSGHFEKARDVYEEAIRTVMTVRDFTQVFDSYAQFEESMIAAKMETASELGREEEDDVDLELRLARFEQLISRRPLLLNSVLLRQNPHHVHEWHKRVALHQGRPREIINTYTEAVQTVDPFKATGKPHTLWVAFAKFYEDNGQLDDARVILEKATKVNFKQVDDLASVWCQCGELELRHENYDEALRLLRKATALPARRAEYFDGSEPVQNRVYKSLKVWSMLADLEESLGTFQSTKAVYDRILDLRIATPQIVINYAMFLEEHKYFEESFKAYERGISLFKWPNVSDIWSTYLTKFIARYGGRKLERARDLFEQALDGCPPKYAKTLYLLYAQLEEEWGLARHAMAVYERATRAVEPAQQYDMFNIYIKRAAEIYGVTHTRGIYQKAIEVLSDEHAREMCLRFADMECKLGEIDRARAIYSFCSQICDPRTTGAFWQTWKDFEVRHGNEDTIKEMLRIRRSVQATYNTQVNFMASQMLKVSGSATGTVSDLAPGQSGMDDMKLLEQRAEQLAAEAERDQPLRAQSKILFVRSDASREELAELAQQVNPEEIQLGEDEDEDEMDLEPNEVRLEQQSVPAAVFGSLKED [XAB2]”, in the data set on HeLa Kyoto [1], the “solubility in G1/S (log2)” value was -0.31. The “solubility change mitosis (log2)” value in the data set on HeLa Kyoto [2] turned out to be 0.0385. In addition, the values for the thermal stability score in the data set on HeLa Kyoto [3] (setting [5]) and in the data set on HeLa Kyoto [3] (cell cycle stage: mitosis) were 2.02 and 4.49, respectively. Besides, the melting temperature with HeLa Kyoto [4] (cell cycle stage: G1/S) was determined as 47.4 °C; with HeLa Kyoto [4] (cell cycle stage: mitosis) it was 48.4 °C.
For the sequence “MASPPHQQLLHHHSTEVSCDSSGDSNSVRVKINPKQLSSNSHPKHCKYSISSSCSSSGDSGGVPRRVGGGGRLRRQKKLPQLFERASSRWWDPKFDSVNLEEACLERCFPQTQRRFRYALFYIGFACLLWSIYFAVHMRSRLIVMVAPALCFLLVCVGFFLFTFTKLYARHYAWTSLALTLLVFALTLAAQFQVLTPVSGRGDSSNLTATARPTDTCLSQVGSFSMCIEVLFLLYTVMHLPLYLSLCLGVAYSVLFETFGYHFRDEACFPSPGAGALHWELLSRGLLHGCIHAIGVHLFVMSQVRSRSTFLKVGQSIMHGKDLEVEKALKERMIHSVMPRIIADDLMKQGDEESENSVKRHATSSPKNRKKKSSIQKAPIAFRPFKMQQIEEVSILFADIVGFTKMSANKSAHALVGLLNDLFGRFDRLCEETKCEKISTLGDCYYCVAGCPEPRADHAYCCIEMGLGMIKAIEQFCQEKKEMVNMRVGVHTGTVLCGILGMRRFKFDVWSNDVNLANLMEQLGVAGKVHISEATAKYLDDRYEMEDGKVIERLGQSVVADQLKGLKTYLISGQRAKESRCSCAEALLSGFEVIDGSQVSSGPRGQGTASSGNVSDLAQTVKTFDNLKTCPSCGITFAPKSEAGAEGGAPQNGCQDEHKNSTKASGGPNPKTQNGLLSPPQEEKLTNSQTSLCEILQEKGRWAGVSLDQSALLPLRFKNIREKTDAHFVDVIKEDSLMKDYFFKPPINQFSLNFLDQELERSYRTSYQEEVIKNSPVKTFASPTFSSLLDVFLSTTVFLTLSTTCFLKYEAATVPPPPAALAVFSAALLLEVLSLAVSIRMVFFLEDVMACTKRLLEWIAGWLPRHCIGAILVSLPALAVYSHVTSEYETNIHFPVFTGSAALIAVVHYCNFCQLSSWMRSSLATVVGAGPLLLLYVSLCPDSSVLTSPLDAVQNFSSERNPCNSSVPRDLRRPASLIGQEVVLVFFLLLLLVWFLNREFEVSYRLHYHGDVEADLHRTKIQSMRDQADWLLRNIIPYHVAEQLKVSQTYSKNHDSGGVIFASIVNFSEFYEENYEGGKECYRVLNELIGDFDELLSKPDYSSIEKIKTIGATYMAASGLNTAQAQDGSHPQEHLQILFEFAKEMMRVVDDFNNNMLWFNFKLRVGFNHGPLTAGVIGTTKLLYDIWGDTVNIASRMDTTGVECRIQVSEESYRVLSKMGYDFDYRGTVNVKGKGQMKTYLYPKCTDHRVIPQHQLSISPDIRVQVDGSIGRSPTDEIANLVPSVQYVDKTSLGSDSSTQAKDAHLSPKRPWKEPVKAEERGRFGKAIEKDDCDETGIEEANELTKLNVSKSV [ADCY9]”, the “solubility in G1/S (log2)” value in the data set on HeLa Kyoto [1] is -0.0462. The “solubility change mitosis (log2)” value in the data set with HeLa Kyoto [2] was -0.172. In addition, the thermal stability score was 0.368 in the data set with HeLa Kyoto [3] (setting [5]) and -0.65 with HeLa Kyoto [3] (cell cycle stage: mitosis). For the same sequence, the melting temperature was determined as 52.3 °C in the data set on HeLa Kyoto [4] (cell cycle stage: G1/S) and 52 °C with HeLa Kyoto [4] (cell cycle stage: mitosis).
On to “MKKFSRMPKSEGGSGGGAAGGGAGGAGAGAGCGSGGSSVGVRVFAVGRHQVTLEESLAEGGFSTVFLVRTHGGIRCALKRMYVNNMPDLNVCKREITIMKELSGHKNIVGYLDCAVNSISDNVWEVLILMEYCRAGQVVNQMNKKLQTGFTEPEVLQIFCDTCEAVARLHQCKTPIIHRDLKVENILLNDGGNYVLCDFGSATNKFLNPQKDGVNVVEEEIKKYTTLSYRAPEMINLYGGKPITTKADIWALGCLLYKLCFFTLPFGESQVAICDGNFTIPDNSRYSRNIHCLIRFMLEPDPEHRPDIFQVSYFAFKFAKKDCPVSNINNSSIPSALPEPMTASEAAARKSQIKARITDTIGPTETSIAPRQRPKANSATTATPSVLTIQSSATPVKVLAPGEFGNHRPKGALRPGNGPEILLGQGPPQQPPQQHRVLQQLQQGDWRLQQLHLQHRHPHQQQQQQQQQQQQQQQQQQQQQQQQQQQHHHHHHHHLLQDAYMQQYQHATQQQQMLQQQFLMHSVYQPQPSASQYPTMMPQYQQAFFQQQMLAQHQPSQQQASPEYLTSPQEFSPALVSYTSSLPAQVGTIMDSSYSANRSVADKEAIANFTNQKNISNPPDMSGWNPFGEDNFSKLTEEELLDREFDLLRSNRLEERASSDKNVDSLSAPHNHPPEDPFGSVPFISHSGSPEKKAEHSSINQENGTANPIKNGKTSPASKDQRTGKKTSVQGQVQKGNDESESDFESDPPSPKSSEEEEQDDEEVLQGEQGDFNDDDTEPENLGHRPLLMDSEDEEEEEKHSSDSDYEQAKAKYSDMSSVYRDRSGSGPTQDLNTILLTSAQLSSDVAVETPKQEFDVFGAVPFFAVRAQQPQQEKNEKNLPQHRFPAAGLEQEEFDVFTKAPFSKKVNVQECHAVGPEAHTIPGYPKSVDVFGSTPFQPFLTSTSKSESNEDLFGLVPFDEITGSQQQKVKQRSLQKLSSRQRRTKQDMSKSNGKRHHGTPTSTKKTLKPTYRTPERARRHKKVGRRDSQSSNEFLTISDSKENISVALTDGKDRGNVLQPEESLLDPFGAKPFHSPDLSWHPPHQGLSDIRADHNTVLPGRPRQNSLHGSFHSADVLKMDDFGAVPFTELVVQSITPHQSQQSQPVELDPFGAAPFPSKQ [BMP2K]”, for which the “solubility in G1/S (log2)” value with HeLa Kyoto [1] is -0.292. In addition, the “solubility change mitosis (log2)” value in the data set on HeLa Kyoto [2] was -0.0153. Also, the figures for the thermal stability score in the data set on HeLa Kyoto [3] (setting [5]) and with HeLa Kyoto [3] (cell cycle stage: mitosis) were 0.793 and 0.398, respectively. Also, the results for the melting temperature in the data set with HeLa Kyoto [4] (cell cycle stage: G1/S) and in the data set with HeLa Kyoto [4] (cell cycle stage: mitosis) were 50.5 °C and 51.1 °C, respectively.
Take “MAMMVFPREEKLSQDEIVLGTKAVIQGLETLRGEHRALLAPLVAPEAGEAEPGSQERCILLRRSLEAIELGLGEAQVILALSSHLGAVESEKQKLRAQVRRLVQENQWLREELAGTQQKLQRSEQAVAQLEEEKQHLLFMSQIRKLDEDASPNEEKGDVPKDTLDDLFPNEDEQSPAPSPGGGDVSGQHGGYEIPARLRTLHNLVIQYASQGRYEVAVPLCKQALEDLEKTSGHDHPDVATMLNILALVYRDQNKYKEAAHLLNDALAIREKTLGKDHPAVAATLNNLAVLYGKRGKYKEAEPLCKRALEIREKVLGKFHPDVAKQLSNLALLCQNQGKAEEVEYYYRRALEIYATRLGPDDPNVAKTKNNLASCYLKQGKYQDAETLYKEILTRAHEKEFGSVNGDNKPIWMHAEEREESKDKRRDSAPYGEYGSWYKACKVDSPTVNTTLRSLGALYRRQGKLEAAHTLEDCASRNRKQGLDPASQTKVVELLKDGSGRRGDRRSSRDMAGGAGPRSESDLEDVGPTAEWNGDGSGSLRRSGSFGKLRDALRRSSEMLVKKLQGGTPQEPPNPRMKRASSLNFLNKSVEEPTQPGGTGLSDSRTLSSSSMDLSRRSSLVG [KLC2]”: in the data set with HeLa Kyoto [1], the “solubility in G1/S (log2)” value was 0.526. Also, the “solubility change mitosis (log2)” value in the data set with HeLa Kyoto [2] is 0.0405. Also, the thermal stability score turned out to be 0.627 in the data set on HeLa Kyoto [3] (setting [5]) and 1.01 in the data set on HeLa Kyoto [3] (cell cycle stage: mitosis). The melting temperature worked out at 50 °C in the data set on HeLa Kyoto [4] (cell cycle stage: G1/S) and 50.1 °C in the data set on HeLa Kyoto [4] (cell cycle stage: mitosis).
